Biological target: the molecule itself
Assay: unfolding kinetics by CD

B1: Human C6A/C111S SOD (Cu, Zn superoxide dismutase) (enzyme)
chain: not shown
  koff: 0.000381 s⁻¹

— paper PMC2756654 (Journal of molecular biology, 2008)
